The labels stand for the following.
B1: E3 ubiquitin-protein ligase CCNB1IP1 (Homo sapiens), Q9NPC3 (parent)
chain: MSLCEDMLLCNYRKCRIKLSGYAWVTACSHIFCDQHGSGEFSRSPAICPACNSTLSGKLDIVRTELSPSEEYKAMVLAGLRPEIVLDISSRALAFWTYQVHQERLYQEYNFSKAEGHLKQMEKIYTQQIQSKDVELTSMKGEVTSMKKVLEEYKKKFSDISEKLMERNRQYQKLQGLYDSLRLRNITIANHEGTLEPSMIAQSGVLGFPLGNNSKFPLDNTPVRNRGDGDGDFQFRPFFAGSPTAPEPSNSFFSFVSPSRELEQQQVSSRAFKVKRI
B2: TBC1 domain family member 7 (Homo sapiens), Q9P0N9 (parent)
chain: MTEDSQRNFRSVYYEKVGFRGVEEKKSLEILLKDDRLDTEKLCTFSQRFPLPSMYRALVWKVLLGILPPHHESHAKVMMYRKEQYLDVLHALKVVRFVSDATPQAEVYLRMYQLESGKLPRSPSFPLEPDDEVFLAIAKAMEEMVEDSVDCYWITRRFVNQLNTKYRDSLPQLPKAFEQYLNLEDGRLLTHLRMCSAAPKLPYDLWFKRCFAGCLPESSLQRVWDKVVSGSCKILVFVAVEILLTFKIKVMALNSAEKITKFLENIPQDSSDAIVSKAIDLWHKHCGTPVHSS
B3: Transcription factor 4 (Homo sapiens), P15884 (parent)
chain: MHHQQRMAALGTDKELSDLLDFSAMFSPPVSSGKNGPTSLASGHFTGSNVEDRSSSGSWGNGGHPSPSRNYGDGTPYDHMTSRDLGSHDNLSPPFVNSRIQSKTERGSYSSYGRESNLQGCHQQSLLGGDMDMGNPGTLSPTKPGSQYYQYSSNNPRRRPLHSSAMEVQTKKVRKVPPGLPSSVYAPSASTADYNRDSPGYPSSKPATSTFPSSFFMQDGHHSSDPWSSSSGMNQPGYAGMLGNSSHIPQSSSYCSLHPHERLSYPSHSSADINSSLPPMSTFHRSGTNHYSTSSCTPPANGTDSIMANRGSGAAGSSQTGDALGKALASIYSPDHTNNSFSSNPSTPVGSPPSLSAGTAVWSRNGGQASSSPNYEGPLHSLQSRIEDRLERLDDAIHVLRNHAVGPSTAMPGGHGDMHGIIGPSHNGAMGGLGSGYGTGLLSANRHSLMVGTHREDGVALRGSHSLLPNQVPVPQLPVQSATSPDLNPPQDPYRGMPPGLQGQSVSSGSSEIKSDDEGDENLQDTKSSEDKKLDDDKKDIKSITSNNDDEDLTPEQKAEREKERRMANNARERLRVRDINEAFKELGRMVQLHLKSDKPQTKLLILHQAVAVILSLEQQVRERNLNPKAACLKRREEEKVSSEPPPLSLAGPHPGMGDASNHMGQM
B4: BUD13 homolog (Homo sapiens), Q9BRD0 (parent)
chain: MAAAPPLSKAEYLKRYLSGADAGVDRGSESGRKRRKKRPKPGGAGGKGMRIVDDDVSWTAISTTKLEKEEEEDDGDLPVVAEFVDERPEEVKQMEAFRSSAKWKLLGGHNEDLPSNRHFRHDTPDSSPRRVRHGTPDPSPRKDRHDTPDPSPRRARHDTPDPSPLRGARHDSDTSPPRRIRHDSSDTSPPRRARHDSPDPSPPRRPQHNSSGASPRRVRHDSPDPSPPRRARHGSSDISSPRRVHNNSPDTSRRTLGSSDTQQLRRARHDSPDLAPNVTYSLPRTKSGKAPERASSKTSPHWKESGASHLSFPKNSKYEYDPDISPPRKKQAKSHFGDKKQLDSKGDCQKATDSDLSSPRHKQSPGHQDSDSDLSPPRNRPRHRSSDSDLSPPRRRQRTKSSDSDLSPPRRSQPPGKKAAHMYSGAKTGLVLTDIQREQQELKEQDQETMAFEAEFQYAETVFRDKSGRKRNLKLERLEQRRKAEKDSERDELYAQWGKGLAQSRQQQQNVEDAMKEMQKPLARYIDDEDLDRMLREQEREGDPMANFIKKNKAKENKNKKVRPRYSGPAPPPNRFNIWPGYRWDGVDRSNGFEQKRFARLASKKAVEELAYKWSVEDM
partner: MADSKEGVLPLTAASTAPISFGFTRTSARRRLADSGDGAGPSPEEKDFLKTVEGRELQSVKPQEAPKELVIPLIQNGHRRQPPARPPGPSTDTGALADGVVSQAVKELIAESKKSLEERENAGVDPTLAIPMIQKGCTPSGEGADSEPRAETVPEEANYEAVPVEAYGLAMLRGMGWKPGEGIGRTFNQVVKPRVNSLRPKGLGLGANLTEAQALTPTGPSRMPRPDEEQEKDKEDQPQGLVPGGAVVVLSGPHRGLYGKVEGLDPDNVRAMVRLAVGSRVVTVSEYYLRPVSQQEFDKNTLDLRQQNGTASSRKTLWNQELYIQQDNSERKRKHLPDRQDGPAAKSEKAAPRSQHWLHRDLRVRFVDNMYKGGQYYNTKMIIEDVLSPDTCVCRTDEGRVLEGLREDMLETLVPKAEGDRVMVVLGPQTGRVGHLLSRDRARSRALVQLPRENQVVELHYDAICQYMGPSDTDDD
B5: PHD finger protein 1 (Homo sapiens), O43189 (parent)
chain: MAQPPRLSRSGASSLWDPASPAPTSGPRPRLWEGQDVLARWTDGLLYLGTIKKVDSAREVCLVQFEDDSQFLVLWKDISPAALPGEELLCCVCRSETVVPGNRLVSCEKCRHAYHQDCHVPRAPAPGEGEGTSWVCRQCVFAIATKRGGALKKGPYARAMLGMKLSLPYGLKGLDWDAGHLSNRQQSYCYCGGPGEWNLKMLQCRSCLQWFHEACTQCLSKPLLYGDRFYEFECCVCRGGPEKVRRLQLRWVDVAHLVLYHLSVCCKKKYFDFDREILPFTSENWDSLLLGELSDTPKGERSSRLLSALNSHKDRFISGREIKKRKCLFGLHARMPPPVEPPTGDGALTSFPSGQGPGGGVSRPLGKRRRPEPEPLRRRQKGKVEELGPPSAVRNQPEPQEQRERAHLQRALQASVSPPSPSPNQSYQGSSGYNFRPTDARCLPSSPIRMFASFHPSASTAGTSGDSGPPDRSPLELHIGFPTDIPKSAPHSMTASSSSVSSPSPGLPRRSAPPSPLCRSLSPGTGGGVRGGVGYLSRGDPVRVLARRVRPDGSVQYLVEWGGGGIF
B6: Maspardin (Homo sapiens), Q9NZD8 (parent)
chain: MGEIKVSPDYNWFRGTVPLKKIIVDDDDSKIWSLYDAGPRSIRCPLIFLPPVSGTADVFFRQILALTGWGYRVIALQYPVYWDHLEFCDGFRKLLDHLQLDKVHLFGASLGGFLAQKFAEYTHKSPRVHSLILCNSFSDTSIFNQTWTANSFWLMPAFMLKKIVLGNFSSGPVDPMMADAIDFMVDRLESLGQSELASRLTLNCQNSYVEPHKIRDIPVTIMDVFDQSALSTEAKEEMYKLYPNARRAHLKTGGNFPYLCRSAEVNLYVQIHLLQFHGTKYAAIDPSMVSAEELEVQKGSLGISQEEQ
B7: Centrosomal protein POC5 (Homo sapiens), Q8NA72 (parent)
chain: MSSDEEKYSLPVVQNDSSRGSSVSSNLQEEYEELLHYAIVTPNIEPCASQSSHPKGELVPDVRISTIHDILHSQGNNSEVRETAIEVGKGCDFHISSHSKTDESSPVLSPRKPSHPVMDFFSSHLLADSSSPATNSSHTDAHEILVSDFLVSDENLQKMENVLDLWSSGLKTNIISELSKWRLNFIDWHRMEMRKEKEKHAAHLKQLCNQINELKELQKTFEISIGRKDEVISSLSHAIGKQKEKIELMRTFFHWRIGHVRARQDVYEGKLADQYYQRTLLKKVWKVWRSVVQKQWKDVVERACQARAEEVCIQISNDYEAKVAMLSGALENAKAEIQRMQHEKEHFEDSMKKAFMRGVCALNLEAMTIFQNRNDAGIDSTNNKKEEYGPGVQGKEHSAHLDPSAPPMPLPVTSPLLPSPPAAVGGASATAVPSAASMTSTRAASASSVHVPVSALGAGSAATAASEEMYVPRVVTSAQQKAGRTITARITGRCDFASKNRISSSLAIMGVSPPMSSVVVEKHHPVTVQTIPQATAAKYPRTIHPESSTSASRSLGTRSAHTQSLTSVHSIKVVD
partner: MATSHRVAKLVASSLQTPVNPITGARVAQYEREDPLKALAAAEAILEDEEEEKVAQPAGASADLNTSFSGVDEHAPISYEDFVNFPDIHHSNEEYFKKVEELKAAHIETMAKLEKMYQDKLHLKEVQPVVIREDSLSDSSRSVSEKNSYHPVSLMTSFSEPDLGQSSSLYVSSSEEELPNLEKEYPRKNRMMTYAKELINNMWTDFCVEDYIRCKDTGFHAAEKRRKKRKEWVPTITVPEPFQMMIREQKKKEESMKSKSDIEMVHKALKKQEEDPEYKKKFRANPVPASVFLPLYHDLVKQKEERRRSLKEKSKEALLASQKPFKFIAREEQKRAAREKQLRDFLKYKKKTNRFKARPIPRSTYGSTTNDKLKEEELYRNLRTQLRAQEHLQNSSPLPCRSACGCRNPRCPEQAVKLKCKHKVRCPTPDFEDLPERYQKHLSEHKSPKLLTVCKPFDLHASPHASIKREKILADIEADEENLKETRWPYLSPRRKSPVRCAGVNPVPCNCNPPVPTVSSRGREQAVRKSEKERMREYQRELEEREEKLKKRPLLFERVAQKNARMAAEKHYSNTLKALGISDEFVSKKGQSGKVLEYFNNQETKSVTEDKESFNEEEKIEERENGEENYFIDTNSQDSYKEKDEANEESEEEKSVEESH

In one test the parent is B1. The note with it: with aapk2_human PRKAA2, P54646.
Sequence of aapk2_human PRKAA2, P54646 (P54646 whole entry, looked up): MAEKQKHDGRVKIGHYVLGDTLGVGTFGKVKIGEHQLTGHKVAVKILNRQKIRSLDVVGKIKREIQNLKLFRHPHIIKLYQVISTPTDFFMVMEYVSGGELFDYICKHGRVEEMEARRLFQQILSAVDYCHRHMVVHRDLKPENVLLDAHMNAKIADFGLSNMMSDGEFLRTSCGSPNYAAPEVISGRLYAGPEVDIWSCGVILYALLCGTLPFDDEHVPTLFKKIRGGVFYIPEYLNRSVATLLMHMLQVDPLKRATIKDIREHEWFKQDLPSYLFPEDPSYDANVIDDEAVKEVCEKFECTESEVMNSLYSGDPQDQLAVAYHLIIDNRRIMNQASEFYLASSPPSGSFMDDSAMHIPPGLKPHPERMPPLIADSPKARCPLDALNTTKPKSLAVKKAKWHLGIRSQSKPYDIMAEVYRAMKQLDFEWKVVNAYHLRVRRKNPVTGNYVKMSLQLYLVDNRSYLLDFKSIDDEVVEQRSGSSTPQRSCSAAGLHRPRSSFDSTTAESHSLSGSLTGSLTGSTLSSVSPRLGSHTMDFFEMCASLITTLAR
F41L: the “effect of a mutation on the interaction” value is recorded as “with no effect”.

In the case of N212D, the “effect of a mutation on the interaction” value is given as “with no effect”.

Take T187A: the “effect of a mutation on the interaction” value is on record as “with no effect”.

On to R104H, for which the “effect of a mutation on the interaction” value is reported as “disrupting interaction strength”.

In a further test the parent is B1. The note with it: with KRT15, P19012.
Sequence of KRT15, P19012 (P19012 whole entry): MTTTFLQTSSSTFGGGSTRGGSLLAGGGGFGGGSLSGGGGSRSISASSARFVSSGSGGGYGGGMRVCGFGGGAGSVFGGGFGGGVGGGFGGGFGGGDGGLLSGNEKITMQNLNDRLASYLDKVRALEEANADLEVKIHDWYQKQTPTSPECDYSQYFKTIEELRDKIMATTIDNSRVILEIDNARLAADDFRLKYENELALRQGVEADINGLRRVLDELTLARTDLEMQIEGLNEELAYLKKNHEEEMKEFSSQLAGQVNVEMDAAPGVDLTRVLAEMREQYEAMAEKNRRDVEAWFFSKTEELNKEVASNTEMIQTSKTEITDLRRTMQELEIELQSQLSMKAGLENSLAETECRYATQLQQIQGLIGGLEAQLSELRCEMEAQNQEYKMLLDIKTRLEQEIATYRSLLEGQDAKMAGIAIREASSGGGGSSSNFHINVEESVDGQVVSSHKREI
Consider F41L, for which the “effect of a mutation on the interaction” value is “with no effect”.

Regarding N212D, the “effect of a mutation on the interaction” value was “with no effect”.

With T187A, the “effect of a mutation on the interaction” value is reported as “with no effect”.

Take R104H: the “effect of a mutation on the interaction” value is “with no effect”.

In the next test the parent is B1. The note with it: with keap1_human KEAP1, Q14145.
Sequence of keap1_human KEAP1, Q14145 (Q14145 whole entry): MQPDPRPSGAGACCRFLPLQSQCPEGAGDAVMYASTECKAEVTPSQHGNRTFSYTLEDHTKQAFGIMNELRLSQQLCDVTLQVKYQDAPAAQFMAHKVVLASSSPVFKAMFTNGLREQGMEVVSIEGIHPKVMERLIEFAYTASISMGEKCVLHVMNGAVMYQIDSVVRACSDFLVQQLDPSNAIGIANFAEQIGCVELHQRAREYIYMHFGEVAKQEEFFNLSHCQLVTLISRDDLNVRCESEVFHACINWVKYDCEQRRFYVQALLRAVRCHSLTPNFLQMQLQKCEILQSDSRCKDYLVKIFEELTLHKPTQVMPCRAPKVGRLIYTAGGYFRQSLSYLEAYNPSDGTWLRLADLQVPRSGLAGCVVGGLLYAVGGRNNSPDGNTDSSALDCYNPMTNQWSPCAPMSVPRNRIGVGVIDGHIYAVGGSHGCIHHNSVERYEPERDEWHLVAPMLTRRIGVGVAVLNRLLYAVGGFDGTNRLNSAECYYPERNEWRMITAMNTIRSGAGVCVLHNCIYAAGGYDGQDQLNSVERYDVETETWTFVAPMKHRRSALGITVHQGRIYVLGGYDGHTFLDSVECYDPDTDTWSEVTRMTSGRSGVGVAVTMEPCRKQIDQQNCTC
As for F41L, the “effect of a mutation on the interaction” value is “with no effect”.

Regarding N212D, the “effect of a mutation on the interaction” value is “with no effect”.

With T187A, the “effect of a mutation on the interaction” value is listed as “with no effect”.

Regarding R104H, the “effect of a mutation on the interaction” value is “with no effect”.

Variants of B2 are the subject of a further test. To be noted: with hook1_human HOOK1, Q9UJC3.
Sequence of hook1_human HOOK1, Q9UJC3 (Q9UJC3 whole entry): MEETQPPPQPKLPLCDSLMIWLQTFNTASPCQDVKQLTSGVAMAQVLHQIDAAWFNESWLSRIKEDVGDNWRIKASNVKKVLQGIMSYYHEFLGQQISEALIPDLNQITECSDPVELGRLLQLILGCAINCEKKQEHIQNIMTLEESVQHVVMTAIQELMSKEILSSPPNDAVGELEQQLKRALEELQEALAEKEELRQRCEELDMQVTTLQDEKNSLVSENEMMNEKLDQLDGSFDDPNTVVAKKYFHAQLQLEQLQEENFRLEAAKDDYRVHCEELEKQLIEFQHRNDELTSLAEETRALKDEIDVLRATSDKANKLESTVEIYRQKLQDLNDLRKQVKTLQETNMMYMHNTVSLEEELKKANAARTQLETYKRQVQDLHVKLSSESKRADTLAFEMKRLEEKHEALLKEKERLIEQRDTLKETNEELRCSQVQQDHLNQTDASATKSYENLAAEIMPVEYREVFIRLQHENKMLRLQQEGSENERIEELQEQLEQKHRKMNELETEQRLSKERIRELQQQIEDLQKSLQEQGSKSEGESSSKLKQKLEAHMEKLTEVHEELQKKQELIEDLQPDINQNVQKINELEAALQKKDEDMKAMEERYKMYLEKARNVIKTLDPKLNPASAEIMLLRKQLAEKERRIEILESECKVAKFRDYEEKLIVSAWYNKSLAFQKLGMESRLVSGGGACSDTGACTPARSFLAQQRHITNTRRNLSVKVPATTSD
Take L67W: the “effect of a mutation on the interaction” value is on record as “disrupting interaction strength”.

Variants of B2 are the subject of the next test. The note with it: with KRT19, P08727.
For L67W, the “effect of a mutation on the interaction” value is listed as “disrupting interaction strength”.

The next test covers variants of B3. The note with it: with defi6_human DEF6, Q9H4E7.
Sequence of defi6_human DEF6, Q9H4E7 (Q9H4E7 whole entry): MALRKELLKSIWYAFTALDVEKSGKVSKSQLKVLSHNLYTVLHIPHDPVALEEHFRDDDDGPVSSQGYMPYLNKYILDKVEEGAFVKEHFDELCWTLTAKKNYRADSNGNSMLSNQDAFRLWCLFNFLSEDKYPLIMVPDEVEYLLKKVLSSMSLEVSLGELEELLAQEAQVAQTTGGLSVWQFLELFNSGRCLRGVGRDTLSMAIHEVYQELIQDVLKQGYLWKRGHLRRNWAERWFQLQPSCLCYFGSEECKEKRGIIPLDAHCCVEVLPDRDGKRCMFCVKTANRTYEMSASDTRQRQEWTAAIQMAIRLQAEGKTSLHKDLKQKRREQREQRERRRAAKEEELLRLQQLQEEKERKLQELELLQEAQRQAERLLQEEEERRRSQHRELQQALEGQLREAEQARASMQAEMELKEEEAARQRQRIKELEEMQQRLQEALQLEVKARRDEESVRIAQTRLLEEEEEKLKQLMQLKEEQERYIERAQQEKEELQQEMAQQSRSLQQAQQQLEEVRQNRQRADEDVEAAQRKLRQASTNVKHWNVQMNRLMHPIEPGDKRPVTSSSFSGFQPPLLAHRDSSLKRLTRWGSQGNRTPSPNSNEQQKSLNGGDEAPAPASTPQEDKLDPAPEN
With N90S, the “effect of a mutation on the interaction” value is given as “with no effect”.

The variants in the next test derive from B4. The note with it: with gpkow_human GPKOW.
As for P148L, the “effect of a mutation on the interaction” value is reported as “with no effect”.

The next test covers variants of B5. To be noted: with dhb14_human HSD17B14, Q9BPX1.
Sequence of dhb14_human HSD17B14, Q9BPX1 (Q9BPX1 whole entry): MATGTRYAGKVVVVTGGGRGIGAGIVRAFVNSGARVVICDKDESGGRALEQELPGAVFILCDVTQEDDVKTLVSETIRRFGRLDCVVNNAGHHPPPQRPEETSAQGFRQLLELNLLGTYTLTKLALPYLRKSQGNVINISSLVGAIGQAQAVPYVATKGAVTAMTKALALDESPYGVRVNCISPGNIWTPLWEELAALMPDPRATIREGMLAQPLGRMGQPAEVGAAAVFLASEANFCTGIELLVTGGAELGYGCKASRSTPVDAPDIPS
Turning to S14L, the “effect of a mutation on the interaction” value is reported as “with no effect”.

The variants in a further test derive from B5. To be noted: with tri23_human TRIM23, P36406.
Sequence of tri23_human TRIM23, P36406 (P36406 whole entry): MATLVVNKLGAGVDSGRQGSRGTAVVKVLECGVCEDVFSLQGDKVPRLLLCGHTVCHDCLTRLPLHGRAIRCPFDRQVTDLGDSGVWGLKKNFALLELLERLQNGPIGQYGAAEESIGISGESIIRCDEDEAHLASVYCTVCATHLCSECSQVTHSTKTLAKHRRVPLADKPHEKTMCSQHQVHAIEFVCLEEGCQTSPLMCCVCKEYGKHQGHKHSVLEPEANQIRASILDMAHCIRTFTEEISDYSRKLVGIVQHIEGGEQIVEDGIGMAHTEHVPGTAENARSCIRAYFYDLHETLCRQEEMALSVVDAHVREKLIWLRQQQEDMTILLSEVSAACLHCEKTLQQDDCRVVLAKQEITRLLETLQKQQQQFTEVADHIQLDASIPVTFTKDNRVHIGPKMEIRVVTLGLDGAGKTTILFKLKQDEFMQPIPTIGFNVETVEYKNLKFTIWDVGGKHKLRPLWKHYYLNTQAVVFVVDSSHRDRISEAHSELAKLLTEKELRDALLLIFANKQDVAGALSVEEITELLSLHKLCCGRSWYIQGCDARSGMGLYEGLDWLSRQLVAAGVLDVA
As to S14L, the “effect of a mutation on the interaction” value was “with no effect”.

The variants in the next test derive from B5. The note with it: with pdli7_human PDLIM7, Q9NR12.
As for S14L, the “effect of a mutation on the interaction” value was “with no effect”.

In another test the parent is B6. The note with it: with cryaa_human CRYAA.
In the case of H272D, the “effect of a mutation on the interaction” value is listed as “disrupting interaction strength”.

Variants of B6 are the subject of another test. The note with it: with traf2_human TRAF2, Q12933.
Sequence of traf2_human TRAF2, Q12933 (Q12933 whole entry): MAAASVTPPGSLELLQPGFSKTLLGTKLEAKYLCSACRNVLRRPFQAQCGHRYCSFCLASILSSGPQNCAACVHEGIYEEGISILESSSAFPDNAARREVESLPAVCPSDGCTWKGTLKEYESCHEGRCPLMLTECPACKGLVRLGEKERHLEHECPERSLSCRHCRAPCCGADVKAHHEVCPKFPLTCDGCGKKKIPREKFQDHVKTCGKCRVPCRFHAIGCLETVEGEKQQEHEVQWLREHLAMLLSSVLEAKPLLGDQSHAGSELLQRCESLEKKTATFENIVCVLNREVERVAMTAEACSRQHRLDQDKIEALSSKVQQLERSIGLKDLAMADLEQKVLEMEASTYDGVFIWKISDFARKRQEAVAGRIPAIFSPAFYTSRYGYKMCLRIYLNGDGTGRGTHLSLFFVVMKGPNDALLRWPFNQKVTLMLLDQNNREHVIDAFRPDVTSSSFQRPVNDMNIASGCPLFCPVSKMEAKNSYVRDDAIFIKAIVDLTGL
As for H272D, the “effect of a mutation on the interaction” value is reported as “disrupting interaction strength”.

In a further test the parent is B6. The note with it: with htf4_human TCF12, Q99081.
Sequence of htf4_human TCF12, Q99081 (Q99081 whole entry): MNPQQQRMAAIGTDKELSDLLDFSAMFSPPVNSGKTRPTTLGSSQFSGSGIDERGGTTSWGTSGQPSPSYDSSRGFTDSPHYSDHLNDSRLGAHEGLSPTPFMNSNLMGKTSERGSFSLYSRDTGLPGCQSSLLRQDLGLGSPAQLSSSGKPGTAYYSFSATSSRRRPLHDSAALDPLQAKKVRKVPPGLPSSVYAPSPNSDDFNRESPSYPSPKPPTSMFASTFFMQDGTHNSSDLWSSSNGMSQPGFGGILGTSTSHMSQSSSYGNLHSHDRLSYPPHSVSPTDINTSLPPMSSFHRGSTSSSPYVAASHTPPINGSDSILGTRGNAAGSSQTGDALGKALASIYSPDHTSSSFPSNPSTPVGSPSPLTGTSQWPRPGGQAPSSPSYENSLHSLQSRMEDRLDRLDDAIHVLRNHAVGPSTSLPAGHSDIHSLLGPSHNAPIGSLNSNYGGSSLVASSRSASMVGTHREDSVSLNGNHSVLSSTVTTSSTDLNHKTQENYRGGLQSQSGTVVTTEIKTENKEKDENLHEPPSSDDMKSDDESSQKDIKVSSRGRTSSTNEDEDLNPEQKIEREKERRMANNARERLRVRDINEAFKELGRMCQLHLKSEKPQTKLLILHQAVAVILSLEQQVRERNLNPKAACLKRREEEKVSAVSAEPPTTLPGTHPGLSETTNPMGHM
With H272D, the “effect of a mutation on the interaction” value is given as “disrupting interaction strength”.

In another test the parent is B7. The note with it: with FAM161A.
As to H36R, the “effect of a mutation on the interaction” value is “with no effect”.

On to I175M, for which the “effect of a mutation on the interaction” value is “with no effect”.

For the origin of these results see IntAct's records for PubMed 31515488.
